From patent US20240317858A1 (Adimab, published 2024)

B1: Antibody No. A001 (ADI-26906) IgG1 (antibody, V domains shown)
VH: QVQLVQSGAEVKKPGASVKVSCKASGFNIKDYYMHWVRQAPGQRLEWMGWIDLENANTIYDAKFQGRVTITRDTSASTAYMELSSLRSEDTAVYYCARDAYGRYFYDVWGQGTLVTVSS
VL: DIVMTQSPDSLAVSLGERATINCKSSQSLLNARTGKNYLAWYQQKPGQPPKLLIYWASTRESGVPDRFSGSGSGTDFTLTISSLQAEDVAVYYCKQSYSRRTFGGGTKVEIK
notes: IgG1, CHO-produced
B2: Antibody No. A002 (ADI-50024) IgG1 (antibody, V domains shown)
VH: QVQLVQSGAEVKKPGASVKVSCKASGFNIKDYYMHWVRQAPGQRLEWIGWIDLENANTVYDAKFQGRVTITRDTSASTAYMELSSLRSEDTAVYYCARDAYGRYFYDVWGQGTLVTVSS
VL: DIVMSQSPDSLAVSLGERATINCKSSQSLLNARTGKNYLAWYQQKPGQPPKLLIYWASTRSSGVPDRFSGSGSGTDFTLTISSLQAEDVAVYYCVQSYFRRTFGGGTKVEIK
notes: IgG1, CHO-produced
B3: Antibody No. V002 (ADI-67445) IgG1 (antibody, V domains shown)
VH: QVQLVQSGAEVKKPGASVKVSCKASGFNIKDYYMHWVRQAPGQRLEWMGWIDLENAETIYDAKFQDRVTITRDTSASTAYMELSSLRSEDTAVYYCARDAYGRYFYDEWGQGTLVTVSS
VL: DIVMTQSPDSLAVSLGERATINCKSSQSLLNARTGKNYLAWYQQKPGQPPKLLIYWASTRESGVPDRFSGSGSGTDFTLTISSLQAEDVAVYYCKQSYSRRTFGGGTKVEIK
notes: IgG1, CHO-produced
B4: Antibody No. V007 (ADI-67450) IgG1 (antibody, V domains shown)
VH: QVQLVQSGAEVKKPGASVKVSCKASGFNIDDYYMHWVRQAPGQRLEWMGWIDLENANTIDDAKFQGRVTITRDTSASTAYMELSSLRSEDTAVYYCARDAYGRYFYDVWGQGTLVTVSS
VL: DIVMTQSPDSLAVSLGERATINCKSSQSLLNARTGKNYLAWYQQKPGQPPKLLIYWASTRESGVPDRFSGSGSGTDFTLTISSLQAEDVAVYYCKQSYSRRTFGGGTKVEIK
notes: IgG1, CHO-produced
B5: Antibody No. V009 (ADI-70326) IgG1 (antibody, V domains shown)
VH: QVQLVQSGAEVKKPGASVKVSCKASGFDIKDYYMHWVRQAPGQRLEWIGWIELENADTVYDAKFQGRVTITRDTSASTAYMELSSLRSEDTAVYYCARDAYGRYFYDVWGQGTLVTVSS
VL: DIVMSQSPDSLAVSLGERATINCKSSQSLLNARTGKNYLAWYQQKPGQPPKLLIYWASTRSSGVPDRFSGSGSGTDFTLTISSLQAEDVAVYYCVQSYFRRTFGGGTKVEIK
notes: IgG1, CHO-produced
B6: Antibody No. V010 (ADI-70327) IgG1 (antibody, V domains shown)
VH: QVQLVQSGAEVKKPGASVKVSCKASGFDIKDYYMHWVRQAPGQRLEWIGWIELENDDTVYDAKFQGRVTITRDTSASTAYMELSSLRSEDTAVYYCARDAYGRYFYDVWGQGTLVTVSS
VL: DIVMSQSPDSLAVSLGERATINCKSSQSLLNARTGKNYLAWYQQKPGQPPKLLIYWASTRSSGVPDRFSGSGSGTDFTLTISSLQAEDVAVYYCVQSYFRRTFGGGTKVEIK
notes: IgG1, CHO-produced
B7: Antibody No. V013 (ADI-70330) IgG1 (antibody, V domains shown)
VH: QVQLVQSGAEVKKPGASVKVSCKASGFNIDDYYMHWVRQAPGQRLEWIGWIDLENANTVDDAKFQGRVTITRDTSASTAYMELSSLRSEDTAVYYCARDAYGRYFYDVWGQGTLVTVSS
VL: DIVMSQSPDSLAVSLGERATINCKSSQSLLNARTGKNYLAWYQQKPGQPPKLLIYWASTRSSGVPDRFSGSGSGTDFTLTISSLQAEDVAVYYCVQSYFRRTFGGGTKVEIK
notes: IgG1, CHO-produced

How the values were obtained:
[1] = target: T1, Human CD3 on CD3+ Jurkat cells (human, UniProt P07766 23-207); experiment: flow cytometry, 100 nM IgG
T1 construct: whole, on cells; Target is the endogenous CD3 complex on cells; also called Human CD3+ Jurkat cells
Description: (§1) Specificity of the anti-CD3 antibodies for human CD3+ Jurkat cells and Cynomolgus monkey HSC-F cells was determined using a FACS cell binding assay. Briefly, cells were thawed and washed with cold PBSF buffer (PBS+0.1% BSA, pH 7.4). About 200,000 cells were aliquoted per well of a 96-well plate and pelleted by centrifugation (5 minutes at 500×g). The cells were washed and resuspended in 100 μl PBSF with CHO-produced anti-CD3 IgG antibody (100 nM). The mixture (cells+antibody) was incubated for 20 minutes on ice, then washed twice with PBSF. Cells were resuspended in 50 μl of propidium iodide (1:500 dilution) and anti-human IgG-RPE (1:100 dilution) prepared in PBSF, then incubated for 20 minutes on ice in the dark before cells were washed twice with PBSF. Binding was analyzed on FACS Canto II. Also shown are results using cells without CD3 [CHO-S cells, Jurkat CD3 knockout (CD3−) cells, and HEK cells] for comparison, including results with Jurkat CD3-cells combined with anti-CD3 antibody Fab fragments (100 nM).

[2] = target: T2, Cynomolgus CD3 on HSC-F cells (cynomolgus, UniProt Q95LI5 22-198); experiment: flow cytometry, 100 nM IgG
T2 construct: whole, on cells; Target is the endogenous CD3 complex on cells; also called Cyno CD3 HSC-F cells; Cyno CD3+ HSC-F cells
Description: as §1

[3] = target: T1, Human CD3 on CD3+ Jurkat cells; experiment: flow cytometry, 100 nM IgG1, pH 7.4
Description: (§2) Cell binding assays. CD3+ human Jurkat cells (ATCC) and CHO-S cells (Invitrogen/ThermoFisher) were thawed and washed with cold PBSF buffer, pH 7.4 (PBS+0.1% BSA, pH 7.4). About 200,000 cells were aliquoted per well of a 96-well plate (FACS Assay Plate VWR BD 353263) and pelleted by centrifugation (5 minutes at 500×g). The cells were washed with either PBSF pH 7.4 or PBSF pH 6.0 (PBS+0.1% BSA, pH 6.0), and then resuspended in 100 μl in either PBSF pH 7.4 or PBSF pH 6.0 with IgG1 antibody (100 nM) produced in yeast as described above or in CHO cells. The mixture (cells+antibody) was incubated for 20 minutes on ice, then washed twice with either PBSF pH 7.4 or PBSF pH 6.0. Cells were resuspended in 50 μl of propidium iodide (Roche; 1:500 dilution) and anti-human IgG-RPE (Southern Biotech; 1:100 dilution) prepared in either PBSF pH 7.4 or PBSF pH 6.0, then incubated for 20 minutes on ice in the dark before cells were washed twice with either PBSF pH 7.4 or PBSF pH 6.0. Binding was analyzed on FACS Canto II.
(§3) Anti-CD3 antibodies A001-A005, V002, V004, V007, V009, V010, V013, and V014-V019 were produced as IgG1s in CHO cells, and binding to human CD3+ Jurkat cells and cynomolgus CD3+ HSC-F cells at pH 7.4 was analyzed by flow cytometry as described in Example 2. NCB (Normalized Cell Binding) values were calculated based on control and sample MFI values as NCB={(Sample MFI)−(Secondary only MFI)}/(Secondary only MFI).

[4] = target: T2, Cynomolgus CD3 on HSC-F cells; experiment: flow cytometry, 100 nM IgG1, pH 7.4
Description: as §2, §3

T2 sequence (Q95LI5 22-198): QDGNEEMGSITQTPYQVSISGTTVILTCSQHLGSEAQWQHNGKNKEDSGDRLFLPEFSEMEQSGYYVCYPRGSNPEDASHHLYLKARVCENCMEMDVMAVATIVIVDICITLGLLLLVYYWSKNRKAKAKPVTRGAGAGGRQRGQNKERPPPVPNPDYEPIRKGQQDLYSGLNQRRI
T1 sequence (P07766 23-207): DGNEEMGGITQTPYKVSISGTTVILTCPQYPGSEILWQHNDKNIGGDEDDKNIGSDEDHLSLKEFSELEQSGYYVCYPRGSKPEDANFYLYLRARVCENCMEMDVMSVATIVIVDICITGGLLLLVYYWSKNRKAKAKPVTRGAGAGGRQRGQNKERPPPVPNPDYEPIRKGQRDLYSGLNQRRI

| Binder | MFI [1] | MFI [2] | NCB (Normalized Cell Binding) [3] | NCB (Normalized Cell Binding) [4] |
| --- | --- | --- | --- | --- |
| B1 | 3150 MFI | 6050 MFI | 289 | 400 |
| B2 | 3410 MFI | 6310 MFI | 366 | 417 |
| B3 | 3040 MFI | 5960 MFI | 320 | 388 |
| B4 | 2930 MFI | 5490 MFI | 287 | 368 |
| B5 | 3070 MFI | 6230 MFI | 309 | 396 |
| B6 | 2910 MFI | 5860 MFI | 298 | 378 |
| B7 | 2950 MFI | 5740 MFI | 295 | 374 |
